These results are taken from patent publication US20240150449A1 (MABYLON, published 2024).

The test deals with T1, recombinant non-phosphorylated full-length TDP-43 (human, UniProt Q13148 1-414).
T1 construct: Bought recombinant protein; also called non-pathological full-length TDP-43; recombinantly expressed full-length TDP-43 (OriGene Technologies)
Description: ELISA, antigen coated. As to the method: Plates were washed with PBS-Tween 0.05% and blocked 1 h at room temperature with PBS containing 5% Milk (Rapilait, Migros, Zurich, Switzerland) or 2% bovine serum albumin (BSA, Sigma-Aldrich Chemie GmbH, Buchs, Switzerland). Patient sera, B cell conditioned medium, or recombinant antibody preparations were incubated for 2 h at room temperature. Binding of human IgG to the antigen of interest was determined using a HRP-conjugated anti human antibody (anti-IgG-HRP from Jackson ImmunoResearch, West Grove, PA, USA) followed by measurement of the HRP activity using a tetramethylbenzidine substrate solution (TMB, Sigma-Aldrich Chemie GmbH, Buchs, Switzerland).

T1 sequence (Q13148 whole entry): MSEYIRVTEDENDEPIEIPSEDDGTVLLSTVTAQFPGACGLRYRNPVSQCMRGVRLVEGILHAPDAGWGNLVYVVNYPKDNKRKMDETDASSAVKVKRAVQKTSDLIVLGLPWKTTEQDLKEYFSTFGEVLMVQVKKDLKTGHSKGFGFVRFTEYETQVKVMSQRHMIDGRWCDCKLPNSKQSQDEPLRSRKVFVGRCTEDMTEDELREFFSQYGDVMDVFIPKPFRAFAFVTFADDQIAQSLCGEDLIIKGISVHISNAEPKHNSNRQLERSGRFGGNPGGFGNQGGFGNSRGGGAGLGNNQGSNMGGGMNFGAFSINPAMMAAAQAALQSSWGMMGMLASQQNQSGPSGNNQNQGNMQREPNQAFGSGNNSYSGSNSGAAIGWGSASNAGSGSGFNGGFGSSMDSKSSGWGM

B1: antibody 15D7 (human IgG) (antibody, V domains shown)
VH: EVQLVESGGGLVQPGGSLRLSCSASGFTFGNYAMHWVRQAPGKGLEYVSAMSSNGGSTYYGDSVKGRFTISRDNSKNTLYLQMSSLRAEDTAVYYCVTRGRKAPSLYYFDCWGPGTLVTVSS
VL: not shown
notes: Recombinant human IgG
For the molecule B1, the binding result is reported as “no binding”.
